These results are taken from US20080227711A1 (LABORATOIRES SERONO, published 2008).

Sequences and labels used below:
B6: recombinant Evasin-3-6His purified from HEK293 cells (other)
chain: LVSTIESRTSGDGADNFDVVSCNKNCTSGQNECPEGCFCGLLGQNKKGHCYKIIGNLSGEPPVVRRHHHHHH
modifications: glycosylation on the S and T residues of the N-terminal sequence LVSTIESRTS (80% of the mature protein); heterogeneous post-translational modification, smear of 20-30 Kd
notes: also called Evasin-3-HIS; mature Evasin-3-HIS

The target of experiment [1] is B6. Kind of experiment: competition for BS3 cross-linking of 125I-CXCL8/IL-8 to recombinant Evasin-3 in HEK293 supernatant, SDS-PAGE autoradiography.
Experiment [2] concerns the target B6. Kind of experiment: SPR (Biacore 3000), Evasin-3-6His immobilized on CM4 chip, chemokine injected. (In general: SPR reads the build-up and loss of mass on a sensor chip optically.)
The target in experiment [3] is B6. The experiment is described as follows: BS3 cross-linking of 125I-labelled protein to Evasin-3-6His, SDS-PAGE autoradiography (FIG. 7).
Experiment [4] addresses T1, CX3CL1/Fractalkine (UniProt P78423 25-100).
T1 sequence: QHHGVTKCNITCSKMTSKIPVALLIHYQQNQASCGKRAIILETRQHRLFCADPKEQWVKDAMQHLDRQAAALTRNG
The experiment is described as follows: SPR (Biacore 3000), Evasin-3-6His immobilized on CM4 chip, chemokine injected.

In experiment [5] the target is T2, CXCL12/SDF-1-alpha (UniProt P48061 22-89).
T2 construct: also called SDF-1α
T2 sequence (P48061 22-89 limits assumed): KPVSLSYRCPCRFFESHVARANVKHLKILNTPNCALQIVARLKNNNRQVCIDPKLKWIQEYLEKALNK
Described as above.

The target of experiment [6] is T3, CCL11/eotaxin (UniProt P51671 24-97).
T3 construct: also called 125I-eotaxin
T3 sequence (P51671 24-97 limits assumed): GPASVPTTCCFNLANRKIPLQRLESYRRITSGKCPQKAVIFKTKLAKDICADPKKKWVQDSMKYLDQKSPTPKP
Described as above.

The target of experiment [7] is T4, IL-1α (UniProt P01583 113-271).
T4 construct: also called 125I-IL-1
T4 sequence: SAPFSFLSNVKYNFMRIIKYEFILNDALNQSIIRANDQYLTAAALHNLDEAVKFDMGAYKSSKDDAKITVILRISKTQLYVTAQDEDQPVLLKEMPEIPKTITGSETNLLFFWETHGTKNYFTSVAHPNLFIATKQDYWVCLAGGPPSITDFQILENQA
The experiment is described as follows: BS3 cross-linking of 125I-labelled protein to Evasin-3-6His, SDS-PAGE autoradiography (FIG. 7).

The target in experiment [8] is T5, IL-2 (UniProt P60568 21-153).
T5 construct: also called 125I-IL-2
T5 sequence (P60568 21-153 limits assumed): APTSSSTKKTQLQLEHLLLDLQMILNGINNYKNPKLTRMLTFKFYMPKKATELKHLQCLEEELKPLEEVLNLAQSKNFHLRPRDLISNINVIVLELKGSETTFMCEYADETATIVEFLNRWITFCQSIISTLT
Described as above.

In experiment [9] the target is T6, CTACK/CCL27 (UniProt Q9Y4X3 25-112).
T6 construct: also called 125I-CCL27/CTACK
T6 sequence: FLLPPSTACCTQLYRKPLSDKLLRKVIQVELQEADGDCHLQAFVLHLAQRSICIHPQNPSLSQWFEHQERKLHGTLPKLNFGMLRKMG
The description is as above.

In experiment [10] the target is T7, CCL2/MCP-1 (UniProt P13500 24-99).
T7 construct: also called 125I-MCP-1
T7 sequence (P13500 24-99 limits assumed): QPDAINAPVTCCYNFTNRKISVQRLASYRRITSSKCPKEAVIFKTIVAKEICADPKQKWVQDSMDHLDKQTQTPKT
The experiment is described as above.

Experiment [11] concerns the target T8, CXCL10/IP-10 (UniProt P02778 22-98).
T8 construct: also called 125I-CXCL10/IP-10
T8 sequence: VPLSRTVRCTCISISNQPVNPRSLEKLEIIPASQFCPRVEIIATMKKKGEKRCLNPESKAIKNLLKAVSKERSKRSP
The description is as above.

For experiment [12], the target named is T9, CXCL8/IL-8 (UniProt P10145 28-99, limits assumed).
T9 construct: also called 125I-CXCL8/IL-8; 125I-IL-8
T9 sequence (looked up): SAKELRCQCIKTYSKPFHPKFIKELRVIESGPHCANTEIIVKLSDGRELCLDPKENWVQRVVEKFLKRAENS
Kind of experiment: SPR (Biacore 3000), Evasin-3-6His immobilized on CM4 chip, Kd=kd/ka.

Experiment [13] has as its target T10, CXCL1/Gro-alpha (UniProt P09341 35-107).
T10 construct: also called Gro-α; 125I-CXCL1/Gro-alpha
T10 sequence: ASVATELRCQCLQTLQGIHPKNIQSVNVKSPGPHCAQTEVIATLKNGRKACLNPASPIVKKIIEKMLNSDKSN
The description is as above.

Experiment [14] concerns the target T11, murine CXCL2/MIP-2 (murine, UniProt P10889 28-100).
T11 sequence: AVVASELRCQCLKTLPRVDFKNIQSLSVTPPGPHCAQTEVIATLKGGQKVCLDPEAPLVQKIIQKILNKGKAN
Described as above.

Experiment [15] has as its target T12, murine CXCL1/KC (murine, UniProt P12850 25-96).
T12 sequence: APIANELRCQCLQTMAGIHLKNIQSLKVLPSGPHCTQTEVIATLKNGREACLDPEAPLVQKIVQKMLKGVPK
The experiment is described as above.

The target of experiment [16] is T9, CXCL8/IL-8. Kind of experiment: cell-based or functional assay.
In experiment [17] the target is T10, CXCL1/Gro-alpha. Kind of experiment: cell-based or functional assay.
Experiment [18] deals with T9, CXCL8/IL-8. The experiment is described as follows: SPR (Biacore 3000), Evasin-3-6His immobilized on CM4 chip, chemokine injected, Langmuir global fit.
Experiment [19] has as its target T10, CXCL1/Gro-alpha. The description is as above.
Experiment [20] concerns the target T11, murine CXCL2/MIP-2. The experiment is described as above.
Experiment [21] addresses T12, murine CXCL1/KC. The experiment is described as above.
Experiment [22] concerns the target T9, CXCL8/IL-8. Kind of experiment: equilibrium competition receptor binding assay: inhibition of 0.1 nM 125I-IL-8 binding to CHO/CXCR1 cells.

B1: CCL3/MIP-1-alpha (ligand)
chain: SLAADTPTACCFSYTSRQIPQNFIADYFETSSQCSKPGVIFLTKRSRQVCADPSEEWVQKYVSDLELSA
notes: also called MIP-1α
For B1, the binding result in experiment [1] is “no binding (tested: 1 µg unlabelled (500 fold excess))”.

B2: CCL4/MIP-1-beta (ligand)
chain: APMGSDPPTACCFSYTARKLPRNFVVDYYETSSLCSQPAVVFQTKRSKQVCADPSESWVQEYVYDLELN
notes: also called MIP-1β
Take B2: the binding result in experiment [2] is given as “no binding (tested: 0.5 µg/ml chemokine)”.

B3: CCL18/PARC (ligand)
chain: AQVGTNKELCCLVYTSWQIPQKFIVDYSETSPQCPKPGVILLTKRGRQICADPNKKWVQKYISDLKLNA
Take B3: in [2], the binding result was “no binding (tested: 0.5 µg/ml chemokine)”.

B4: CCL5/RANTES (ligand)
chain: SPYSSDTTPCCFAYIARPLPRAHIKEYFYTSGKCSNPAVVFVTRKNRQVCANPEKKWVREYINSLEMS
notes: also called 125I-CCL5/RANTES
For B4, the binding result in experiment [3] was “no binding (tested: 0.23 nM 125I-labelled protein)”.

B5: TARC/CCL17 (ligand)
chain: ARGTNVGRECCLEYFKGAIPLRKLKTWYQTSEDCSRDAIVFVTVQGRAICSDPNNKRVKNAVKYLQSLERS
notes: also called 125I-CCL17/TARC
For the molecule B5, in experiment [3], the binding result is “no binding (tested: 0.23 nM 125I-labelled protein)”.
As to B6, the binding result in experiment [4] is reported as “no binding (tested: 0.5 µg/ml chemokine)”; in [5], “no binding (tested: 0.5 µg/ml chemokine)”; in [6], “no binding (tested: 0.5 µg/ml chemokine)”; in experiment [7] it was “no binding (tested: 0.23 nM 125I-labelled protein)”; in experiment [8], “no binding (tested: 0.23 nM 125I-labelled protein)”; in [9] it was “no binding (tested: 0.23 nM 125I-labelled protein)”. Further, the binding result in [10] and in experiment [11] was “no binding (tested: 0.23 nM 125I-labelled protein)” throughout. The Kd (in general, the constant that tells how readily two partners part at equilibrium) in experiment [12] turned out to be 0.22 nM; in [13] it was 0.45 nM; in experiment [14], 0.18 nM; in experiment [15], 5.34 nM. In [16], the “IC50 of inhibition of IL-8 induced chemotaxis of human neutrophils” value turned out to be 16 nM. Moreover, the “IC50 of inhibition of Gro-alpha induced chemotaxis of human neutrophils” value in [17] came to 20 nM. The dissociation rate constant (koff) (in general, the rate constant with which the complex falls apart) in experiment [18] worked out at 0.000178 s⁻¹; in experiment [19] it was 0.00117 s⁻¹; in [20], 0.000255 s⁻¹; in experiment [21] it was 0.0012 s⁻¹. For the same molecule, the kon (as a rule, a measure of how fast the partners come together) in experiment [18] worked out at 826000 M⁻¹ s⁻¹; in experiment [19], 2.6e+06 M⁻¹ s⁻¹; in experiment [20] it was 1.43e+06 M⁻¹ s⁻¹; in experiment [21], 225000 M⁻¹ s⁻¹. Moreover, the concentration for half-maximal inhibition (IC50) (as a rule, the midpoint of a concentration-inhibition curve) in experiment [22] was determined as 1 nM.
